Test results published in patent US20250101111A1.
pKd: −log10 of the molar value.

Assays:
[1] = molecular target: human FcγRIIIb-NA1 (human) (UniProt O75015); assay: SPR (IBIS MX96), FcγR captured on sensor, full-length IgG1 titrated, pH 7.4, equilibrium 1:1 fit
[2] = molecular target: human FcγRIIa-131H (human) (UniProt P12318); assay: as above
[3] = molecular target: human FcγRIIa-131R (human) (UniProt P12318); assay: as above
[4] = molecular target: human FcγRIIb (human) (UniProt P31994); assay: as above
[5] = molecular target: human FcγRIa (human) (UniProt P12314); assay: as above
[6] = molecular target: human FcγRIIIa-158V (human) (UniProt P08637); assay: SPR (IBIS MX96), FcγR captured on sensor, full-length IgG1 titrated, pH 6.0, equilibrium 1:1 fit
[7] = molecular target: human FcγRIIIb-NA1 (human) (UniProt O75015); assay: as above
[8] = molecular target: human FcγRIIa-131H (human) (UniProt P12318); assay: as above
[9] = molecular target: human FcγRIIa-131R (human) (UniProt P12318); assay: as above
[10] = molecular target: human FcγRIIb (human) (UniProt P31994); assay: as above
[11] = molecular target: human FcγRIa (human) (UniProt P12314); assay: as above
[12] = molecular target: human FcγRIIIa-158F (human) (UniProt P08637); assay: SPR (IBIS MX96), FcγR captured on sensor, full-length IgG1 titrated, pH 7.4, equilibrium 1:1 fit
[13] = molecular target: human FcγRIIIa-158V (human) (UniProt P08637); assay: as above
[14] = molecular target: human FcγRIIIb-NA2 (human) (UniProt O75015); assay: as above
[15] = molecular target: human FcγRIIIa-158F (human) (UniProt P08637); assay: SPR (IBIS MX96), FcγR captured on sensor, full-length IgG1 titrated, pH 6.0, equilibrium 1:1 fit
[16] = molecular target: human FcγRIIIb-NA2 (human) (UniProt O75015); assay: as above

Sequence of human FcγRIIa-131H (human) (P12318 34-218 limits assumed): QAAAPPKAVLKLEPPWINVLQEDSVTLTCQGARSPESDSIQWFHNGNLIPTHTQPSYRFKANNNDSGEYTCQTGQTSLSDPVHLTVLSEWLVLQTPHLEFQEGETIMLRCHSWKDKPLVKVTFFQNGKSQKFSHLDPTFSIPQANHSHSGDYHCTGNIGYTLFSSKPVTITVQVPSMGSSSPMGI
Sequence of human FcγRIIIb-NA1 (human) (O75015 other isoform, or with tags, fused parts or gaps limits assumed): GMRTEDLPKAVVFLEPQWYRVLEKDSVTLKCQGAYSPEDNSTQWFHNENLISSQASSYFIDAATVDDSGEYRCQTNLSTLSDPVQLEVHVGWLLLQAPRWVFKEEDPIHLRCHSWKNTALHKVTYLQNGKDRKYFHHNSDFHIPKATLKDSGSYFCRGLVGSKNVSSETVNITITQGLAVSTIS
Sequence of human FcγRIa (human) (P12314 16-288 limits assumed): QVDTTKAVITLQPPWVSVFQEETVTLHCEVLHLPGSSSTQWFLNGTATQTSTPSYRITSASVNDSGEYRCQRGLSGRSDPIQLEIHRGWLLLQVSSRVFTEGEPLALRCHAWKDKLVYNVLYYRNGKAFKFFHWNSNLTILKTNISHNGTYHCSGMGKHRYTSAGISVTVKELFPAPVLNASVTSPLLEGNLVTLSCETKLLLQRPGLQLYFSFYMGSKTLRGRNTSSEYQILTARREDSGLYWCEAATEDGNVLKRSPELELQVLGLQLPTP
Sequence of human FcγRIIIa-158V (human) (P08637 17-208 F176V limits assumed): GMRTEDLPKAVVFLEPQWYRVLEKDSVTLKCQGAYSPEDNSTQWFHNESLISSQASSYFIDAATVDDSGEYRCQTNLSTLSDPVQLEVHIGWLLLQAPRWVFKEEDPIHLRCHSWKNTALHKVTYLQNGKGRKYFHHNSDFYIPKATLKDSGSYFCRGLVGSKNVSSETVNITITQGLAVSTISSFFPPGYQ
Sequence of human FcγRIIIb-NA2 (human) (O75015 17-200 N65S limits assumed): as the sequence (O75015 other isoform, or with tags, fused parts or gaps limits assumed) above, with R20S, N49S, D66N, V90I counted along it
Sequence of human FcγRIIb (human) (P31994 43-217 limits assumed): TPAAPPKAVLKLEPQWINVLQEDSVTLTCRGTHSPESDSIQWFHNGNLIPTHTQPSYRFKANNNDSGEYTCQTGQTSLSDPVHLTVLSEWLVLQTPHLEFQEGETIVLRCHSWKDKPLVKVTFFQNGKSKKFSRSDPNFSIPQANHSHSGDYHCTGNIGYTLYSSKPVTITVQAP
Sequence of human FcγRIIa-131R (human) (P12318 34-218 H167R limits assumed): as the sequence (P12318 34-218 limits assumed) above, with H134R counted along it
Sequence of human FcγRIIIa-158F (human) (P08637 17-208 limits assumed): as the sequence (P08637 17-208 F176V limits assumed) above, with V160F counted along it

| pKd [1] | pKd [2] | pKd [3] | pKd [4] | pKd [5] | pKd [6] | pKd [7] | pKd [8] | pKd [9] | pKd [10] | pKd [11] | pKd [12] | pKd [13] | pKd [14] | pKd [15] | pKd [16] | Substance |
| --- | --- | --- | --- | --- | --- | --- | --- | --- | --- | --- | --- | --- | --- | --- | --- | --- |
| < 5.70 | 6.90 | 6.62 | < 5.70 | 7.88 | 6.31 | < 5.70 | 6.85 | 6.45 | < 5.70 | 7.20 | – | – | – | – | – | IgG1-G236A (antibody) |
| < 5.70 | 6.18 | 6.02 | < 5.70 | 8.15 | 6.47 | < 5.70 | 6.34 | 6.04 | < 5.70 | 7.57 | < 5.70 | 6.42 | < 5.70 | 6.05 | < 5.70 | IgG1-WT (antibody) |
| 6.21 | 6.00 | 6.00 | < 5.70 | 7.48 | 7.75 | < 5.70 | 5.99 | 5.70 | < 5.70 | 7.48 | 7.09 | 7.78 | 6.26 | 6.99 | 6.20 | IgG1-WT-afuc (antibody) |
| – | – | – | – | < 5.70 | – | – | – | – | – | < 5.70 | – | – | – | – | – | IgG1-ΔG236 (antibody) |
